Reference: patent US7067474B1, “Agents for treating human illnesses based on β-catenin, and the production and use thereof” (Max-Delbruck-Centrum fur Molekulare Medizin, priority 1998, dated 2006)
Where a chain is given by its changes, count along the chain named.

What was measured:
[1] = target: T1, human β-catenin (Leu218-Leu781) mutant Lys 292 to alanine, Gal-4 activation domain fusion (human, UniProt P35222 218-781); assay: yeast 2-hybrid; - means 60-100% of the wild type interaction
T1 sequence: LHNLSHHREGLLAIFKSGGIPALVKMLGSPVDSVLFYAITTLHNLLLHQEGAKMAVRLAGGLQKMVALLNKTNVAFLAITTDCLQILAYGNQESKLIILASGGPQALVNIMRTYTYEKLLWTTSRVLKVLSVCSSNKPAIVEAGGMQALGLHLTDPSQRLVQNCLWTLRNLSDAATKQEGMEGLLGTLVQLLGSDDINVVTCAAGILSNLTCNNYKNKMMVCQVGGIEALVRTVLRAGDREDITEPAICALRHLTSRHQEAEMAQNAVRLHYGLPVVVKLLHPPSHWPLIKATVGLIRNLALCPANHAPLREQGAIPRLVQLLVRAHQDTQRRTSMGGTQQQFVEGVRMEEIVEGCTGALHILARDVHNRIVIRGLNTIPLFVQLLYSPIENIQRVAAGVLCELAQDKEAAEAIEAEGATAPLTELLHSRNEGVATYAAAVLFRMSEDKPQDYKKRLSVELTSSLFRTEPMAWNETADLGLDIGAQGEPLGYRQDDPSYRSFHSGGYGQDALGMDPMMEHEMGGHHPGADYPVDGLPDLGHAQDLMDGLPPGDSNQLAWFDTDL
Description: (§1) 4. Preparation and testing of mutants of β-catenin modulating the interaction with LEF-1, APC, conductin or E-cadherin The mutagenesis of β-catenin in the armadillo repeats 3–8 was carried out by means of the "mutagenesis kit" of the company Clontech according to the producer's record and the mutants were checked by sequencing (FIG. 5). In all mutants the original amino acid was substituted by alanine. For analyzing the interactions the cDNA of human β-catenin (armadillo repeat 3 up to the C-terminal end of the protein) coding for the amino acids Leu218–Leu7 µl or its mutants was cloned into the fusion vector for the activation domain of Gal-4 (pGAD424, Clontech). The cDNA for the binding domains of the interaction partners was cloned into the Lex-A fusion vector BTM 116. To this end, the cDNA of LEF-1 for the amino acids 1–99, conductin for the amino acids Ala342–ARG465; of human APC for the amino acids His1012–Glu1215 (APC 15 amino acid repeats) and for the amino acids Ser1259Asp 1400 (APC 20 amino acid repeats) and E-cadherin for the amino acids Gin773–Asp884 (cytoplasmatic domain) were amplified with the respective primers PCR. The interaction of the Lex-A hybrids with β-catenin and its mutants was quantified by means of the β-galactosidase reporter activity in the yeast 2-hybrid system (report: "Matchmaker". Clontech) (Tab. 2 and FIG. 6).

[2] = target: T2, human β-catenin (armadillo repeat 3 up to the C-terminal end, Leu218-Leu781) fused to the activation domain … (human, UniProt P04386 768-881; P35222 218-781); assay: yeast 2-hybrid; wild type is the 100% reference of Table 2
T2 construct: Order of the fusion follows the vector; also called wild type β-catenin
T2 sequence (looked up): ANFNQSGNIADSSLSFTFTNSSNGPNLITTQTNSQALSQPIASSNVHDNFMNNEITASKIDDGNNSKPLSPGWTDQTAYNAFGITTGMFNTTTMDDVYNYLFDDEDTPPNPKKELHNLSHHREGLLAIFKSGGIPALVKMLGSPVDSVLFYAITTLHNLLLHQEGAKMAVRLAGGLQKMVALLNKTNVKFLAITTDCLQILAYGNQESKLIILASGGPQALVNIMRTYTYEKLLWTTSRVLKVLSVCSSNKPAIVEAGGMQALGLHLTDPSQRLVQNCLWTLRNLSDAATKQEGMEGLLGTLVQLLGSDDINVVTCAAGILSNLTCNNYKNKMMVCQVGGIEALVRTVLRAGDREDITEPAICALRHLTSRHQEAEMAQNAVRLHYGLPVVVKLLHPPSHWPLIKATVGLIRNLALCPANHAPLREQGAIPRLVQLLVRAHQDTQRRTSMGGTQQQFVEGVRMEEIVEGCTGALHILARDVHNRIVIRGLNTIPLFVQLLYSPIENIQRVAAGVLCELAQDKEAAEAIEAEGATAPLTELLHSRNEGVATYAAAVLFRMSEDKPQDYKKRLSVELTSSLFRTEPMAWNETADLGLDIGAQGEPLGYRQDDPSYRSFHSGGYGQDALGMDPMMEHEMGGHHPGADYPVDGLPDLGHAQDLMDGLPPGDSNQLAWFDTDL
Description: as §1

[3] = target: T3, human β-catenin (Leu218-Leu781) mutant His 470 to alanine, Gal-4 activation domain fusion (human, UniProt P35222 218-781); assay: yeast 2-hybrid
T3 sequence: T1 sequence with A75K, H253A
Description: as §1

B1: LEF-1 amino acids 1-99 fused to Lex-A (vector BTM 116) (other, UniProt P0A7C2 1-202, looked up)
chain: MKALTARQQEVFDLIRDHISQTGMPPTRAEIAQRLGFRSPNAAEEHLKALARKGVIEIVSGASRGIRLLQEEEEGLPLVGRVAAGEPLLAQQHIEGHYQVDPSLFKPNADFLLRVSGMSMKDIGIMDGDLLAVHKTQDVRNGQVVVARIDDEVTVKRLKKQGNKVELLPENSEFKPIVVDLRQQSFTIEGLAVGVIRNGDWLMPQLSGGGGGGDPELCATDEMIPFKDEGDPQKEKIFAEISHPEEEGDLADIKSSLVNESEIIPASNGHEVVRQAPSSQEPYHDKAREHPDEGKHPDGGL
notes: Order of the fusion follows the vector; also called LEF-1/TCF-4
Question: Does B1 bind [1]?
Answer: binds

Question: Does B1 bind [2]?
Answer: binds

Question: Does B1 bind [3]?
Answer: no binding
